For this experiment, the target named is mouse LSR (mouse) (UniProt Q99KG5). The experiment is described as follows: cell-based or functional assay.
Sequence of UniProt Q99KG5 (Q99KG5 36-594): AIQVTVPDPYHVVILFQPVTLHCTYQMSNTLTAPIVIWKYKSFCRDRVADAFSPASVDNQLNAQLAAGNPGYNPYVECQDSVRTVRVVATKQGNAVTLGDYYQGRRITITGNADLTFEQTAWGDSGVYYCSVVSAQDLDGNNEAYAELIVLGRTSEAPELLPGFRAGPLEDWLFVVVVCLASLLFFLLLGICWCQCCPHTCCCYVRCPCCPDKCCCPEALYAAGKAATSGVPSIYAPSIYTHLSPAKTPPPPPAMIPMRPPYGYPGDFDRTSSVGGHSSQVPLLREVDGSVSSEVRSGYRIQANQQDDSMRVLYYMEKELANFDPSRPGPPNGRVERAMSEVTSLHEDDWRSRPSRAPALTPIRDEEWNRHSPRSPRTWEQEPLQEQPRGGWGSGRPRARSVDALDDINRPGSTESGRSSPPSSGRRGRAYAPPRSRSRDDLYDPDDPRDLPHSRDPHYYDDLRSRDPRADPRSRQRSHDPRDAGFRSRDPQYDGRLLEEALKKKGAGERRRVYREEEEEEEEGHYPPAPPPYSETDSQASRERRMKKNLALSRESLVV

“125I-mouse leptin (from UniProt P41160 22-167) (ligand)” showed a leptin uptake in a liver cell line (BPRCL), gOBG3 against OBG3 greater than 30%.
